From PMC11066007, “CORVET-specific subunit levels determine the balance between HOPS/CORVET endosomal tethering complexes” (Scientific Reports, 2024)

B1: VPS11 (natural protein, human (endogenous in HEK293), UniProt Q9H270 1-941, looked up)
chain: MAAYLQWRRFVFFDKELVKEPLSNDGAAPGATPASGSAASKFLCLPPGITVCDSGRGSLVFGDMEGQIWFLPRSLQLTGFQAYKLRVTHLYQLKQHNILASVGEDEEGINPLVKIWNLEKRDGGNPLCTRIFPAIPGTEPTVVSCLTVHENLNFMAIGFTDGSVTLNKGDITRDRHSKTQILHKGNYPVTGLAFRQAGKTTHLFVVTTENVQSYIVSGKDYPRVELDTHGCGLRCSALSDPSQDLQFIVAGDECVYLYQPDERGPCFAFEGHKLIAHWFRGYLIIVSRDRKVSPKSEFTSRDSQSSDKQILNIYDLCNKFIAYSTVFEDVVDVLAEWGSLYVLTRDGRVHALQEKDTQTKLEMLFKKNLFEMAINLAKSQHLDSDGLAQIFMQYGDHLYSKGNHDGAVQQYIRTIGKLEPSYVIRKFLDAQRIHNLTAYLQTLHRQSLANADHTTLLLNCYTKLKDSSKLEEFIKKKSESEVHFDVETAIKVLRQAGYYSHALYLAENHAHHEWYLKIQLEDIKNYQEALRYIGKLPFEQAESNMKRYGKILMHHIPEQTTQLLKGLCTDYRPSLEGRSDREAPGCRANSEEFIPIFANNPRELKAFLEHMSEVQPDSPQGIYDTLLELRLQNWAHEKDPQVKEKLHAEAISLLKSGRFCDVFDKALVLCQMHDFQDGVLYLYEQGKLFQQIMHYHMQHEQYRQVISVCERHGEQDPSLWEQALSYFARKEEDCKEYVAAVLKHIENKNLMPPLLVVQTLAHNSTATLSVIRDYLVQKLQKQSQQIAQDELRVRRYREETTRIRQEIQELKASPKIFQKTKCSICNSALELPSVHFLCGHSFHQHCFESYSESDADCPTCLPENRKVMDMIRAQEQKRDLHDQFQHQLKCSNDSFSVIADYFGRGVFNKLTLLTDPPTARLTSSLEAGLQRDLLMHSRRGT
notes: VPS11, shared class C core subunit of HOPS and CORVET, detected by anti-VPS11 western blot in anti-FLAG precipitates; also called core subunit VPS11; source: endogenous, HEK293 lysate
B2: VPS18 (natural protein, human (endogenous in HEK293), UniProt Q9P253 1-973, looked up)
chain: MASILDEYENSLSRSAVLQPGCPSVGIPHSGYVNAQLEKEVPIFTKQRIDFTPSERITSLVVSSNQLCMSLGKDTLLRIDLGKANEPNHVELGRKDDAKVHKMFLDHTGSHLLIALSSTEVLYVNRNGQKVRPLARWKGQLVESVGWNKALGTESSTGPILVGTAQGHIFEAELSASEGGLFGPAPDLYFRPLYVLNEEGGPAPVCSLEAERGPDGRSFVIATTRQRLFQFIGRAAEGAEAQGFSGLFAAYTDHPPPFREFPSNLGYSELAFYTPKLRSAPRAFAWMMGDGVLYGALDCGRPDSLLSEERVWEYPEGVGPGASPPLAIVLTQFHFLLLLADRVEAVCTLTGQVVLRDHFLEKFGPLKHMVKDSSTGQLWAYTERAVFRYHVQREARDVWRTYLDMNRFDLAKEYCRERPDCLDTVLAREADFCFRQRRYLESARCYALTQSYFEEIALKFLEARQEEALAEFLQRKLASLKPAERTQATLLTTWLTELYLSRLGALQGDPEALTLYRETKECFRTFLSSPRHKEWLFASRASIHELLASHGDTEHMVYFAVIMQDYERVVAYHCQHEAYEEALAVLARHRDPQLFYKFSPILIRHIPRQLVDAWIEMGSRLDARQLIPALVNYSQGGEVQQVSQAIRYMEFCVNVLGETEQAIHNYLLSLYARGRPDSLLAYLEQAGASPHRVHYDLKYALRLCAEHGHHRACVHVYKVLELYEEAVDLALQVDVDLAKQCADLPEEDEELRKKLWLKIARHVVQEEEDVQTAMACLASCPLLKIEDVLPFFPDFVTIDHFKEAICSSLKAYNHHIQELQREMEEATASAQRIRRDLQELRGRYGTVEPQDKCATCDFPLLNRPFYLFLCGHMFHADCLLQAVRPGLPAYKQARLEELQRKLGAAPPPAKGSARAKEAEGGAATAGPSREQLKADLDELVAAECVYCGELMIRSIDRPFIDPQRYEEEQLSWL
notes: VPS18, shared class C core subunit of HOPS and CORVET, detected by anti-VPS18 western blot in anti-FLAG precipitates; also called core subunit VPS18; source: endogenous, HEK293 lysate

Experiments:
VPS8-FLAG = target: T1, VPS8-FLAG (human, UniProt Q8N3P4 1-1428); experiment: co-IP; anti-FLAG beads on total lysates of HEK293 cells stably transfected with a FLAG-tagged specific subunit, with or without transient overexpression of the counterpart subunit (control: pCMV); endogenous VPS11 and VPS18 detected by western blot, densitometry with ImageJ; lysis buffer 50 mM TRIS-HCl pH 7.5, 150 mM NaCl, 1% Triton X-100, 5 mM EDTA; 1.5 h at 4 °C; conditions: partners not purified
T1 construct: VPS8, human, CORVET-specific subunit; DNA region encoding the full-length protein fused with a FLAG tag; also called CORVET-specific VPS8; source: HEK293, stably transfected (pCMV3), in lysate; not shown: FLAG, C-terminal, kept
T1 sequence (looked up): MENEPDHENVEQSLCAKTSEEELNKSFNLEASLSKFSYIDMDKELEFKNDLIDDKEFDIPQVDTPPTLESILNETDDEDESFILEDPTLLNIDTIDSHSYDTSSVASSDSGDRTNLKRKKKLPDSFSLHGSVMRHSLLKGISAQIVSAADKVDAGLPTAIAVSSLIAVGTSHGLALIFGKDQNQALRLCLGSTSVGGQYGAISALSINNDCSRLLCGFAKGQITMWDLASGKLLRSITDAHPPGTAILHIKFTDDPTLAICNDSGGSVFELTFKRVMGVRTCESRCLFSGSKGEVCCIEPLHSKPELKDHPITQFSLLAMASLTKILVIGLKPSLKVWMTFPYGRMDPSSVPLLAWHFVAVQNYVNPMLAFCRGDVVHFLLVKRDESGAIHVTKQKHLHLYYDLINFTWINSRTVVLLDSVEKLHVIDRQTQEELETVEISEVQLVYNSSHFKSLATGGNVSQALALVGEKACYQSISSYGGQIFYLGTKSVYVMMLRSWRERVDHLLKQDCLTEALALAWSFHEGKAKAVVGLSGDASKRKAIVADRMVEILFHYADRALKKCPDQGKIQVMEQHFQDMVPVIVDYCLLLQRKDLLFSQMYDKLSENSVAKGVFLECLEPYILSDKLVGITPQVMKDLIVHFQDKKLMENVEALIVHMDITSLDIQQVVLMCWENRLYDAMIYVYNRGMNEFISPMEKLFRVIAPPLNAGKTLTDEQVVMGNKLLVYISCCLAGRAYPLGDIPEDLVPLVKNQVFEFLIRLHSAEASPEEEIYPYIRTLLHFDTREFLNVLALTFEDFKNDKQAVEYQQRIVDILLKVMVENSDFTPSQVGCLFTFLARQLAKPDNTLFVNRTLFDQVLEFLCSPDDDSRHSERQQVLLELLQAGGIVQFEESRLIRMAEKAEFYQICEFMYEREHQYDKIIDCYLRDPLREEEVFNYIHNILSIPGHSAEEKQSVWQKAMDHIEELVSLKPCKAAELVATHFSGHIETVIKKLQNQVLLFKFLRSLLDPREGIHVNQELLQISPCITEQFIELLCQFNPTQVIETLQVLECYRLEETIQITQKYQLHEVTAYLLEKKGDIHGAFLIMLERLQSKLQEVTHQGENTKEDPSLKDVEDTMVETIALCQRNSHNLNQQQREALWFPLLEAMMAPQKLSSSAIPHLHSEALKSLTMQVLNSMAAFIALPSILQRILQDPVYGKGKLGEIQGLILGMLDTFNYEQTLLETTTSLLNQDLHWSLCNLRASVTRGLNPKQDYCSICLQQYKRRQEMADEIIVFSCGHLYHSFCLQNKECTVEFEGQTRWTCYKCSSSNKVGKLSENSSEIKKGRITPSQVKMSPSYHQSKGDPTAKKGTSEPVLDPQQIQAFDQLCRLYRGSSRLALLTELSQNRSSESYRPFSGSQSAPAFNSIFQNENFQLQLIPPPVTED

VPS41-FLAG = target: T2, VPS41-FLAG (human, UniProt P49754 1-854); experiment: as above; conditions: partners not purified
T2 construct: VPS41, human, HOPS-specific subunit; DNA region encoding the full-length protein fused with a FLAG tag; The label puts FLAG after the name, but the methods say N-terminal tags were used for VPS41 and VPS39; also called HOPS-specific VPS41; source: HEK293, stably transfected (pCMV3), in lysate; not shown: FLAG, N-terminal, kept
T2 sequence (looked up): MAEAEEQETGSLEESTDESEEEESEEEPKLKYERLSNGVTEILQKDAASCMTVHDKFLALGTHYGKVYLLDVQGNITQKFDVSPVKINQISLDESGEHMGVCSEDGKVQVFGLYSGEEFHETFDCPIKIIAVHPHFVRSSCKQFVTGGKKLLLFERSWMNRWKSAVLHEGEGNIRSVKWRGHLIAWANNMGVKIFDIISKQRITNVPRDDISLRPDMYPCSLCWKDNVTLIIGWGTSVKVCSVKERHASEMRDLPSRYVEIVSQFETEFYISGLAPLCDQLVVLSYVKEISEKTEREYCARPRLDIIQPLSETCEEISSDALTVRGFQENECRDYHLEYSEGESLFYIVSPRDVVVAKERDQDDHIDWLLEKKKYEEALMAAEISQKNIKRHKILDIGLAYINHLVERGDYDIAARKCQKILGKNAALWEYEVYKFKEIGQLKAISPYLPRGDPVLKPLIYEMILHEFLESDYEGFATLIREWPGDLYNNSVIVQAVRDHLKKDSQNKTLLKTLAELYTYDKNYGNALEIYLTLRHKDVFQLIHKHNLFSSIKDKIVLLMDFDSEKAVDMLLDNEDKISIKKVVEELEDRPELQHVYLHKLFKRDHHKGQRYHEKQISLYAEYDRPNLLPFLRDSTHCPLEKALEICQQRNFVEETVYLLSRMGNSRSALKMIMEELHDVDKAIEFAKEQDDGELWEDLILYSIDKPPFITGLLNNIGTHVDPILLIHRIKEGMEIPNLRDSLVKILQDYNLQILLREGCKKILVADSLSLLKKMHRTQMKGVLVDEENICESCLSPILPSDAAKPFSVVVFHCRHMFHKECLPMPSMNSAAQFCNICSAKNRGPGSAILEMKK

Row | Binder | relative amount bound with Vps41-HA overexpressed (control cells HEK + pCMV as reference) (VPS8-FLAG) | relative amount bound with VPS8 overexpressed (control cells HEK + pCMV as reference) (VPS41-FLAG)
1 | B1 | 1.52 relative to control cells | 0.31 relative to control cells
2 | B2 | 1.21 relative to control cells | 0.69 relative to control cells
